This is an account of results in patent publication EP4803151A2 (Lepu Biopharma Co., Ltd., dated 2026).

The labels stand for the following.
T1: human DLL1 his tag fusion protein (Sino Biological, Cat. No. 11635-H08H) (human, UniProt O00548 18-540)
T1 construct: Bought protein; also called hDLL1-his; hDLL1 protein; not shown: his tag
T1 sequence (looked up): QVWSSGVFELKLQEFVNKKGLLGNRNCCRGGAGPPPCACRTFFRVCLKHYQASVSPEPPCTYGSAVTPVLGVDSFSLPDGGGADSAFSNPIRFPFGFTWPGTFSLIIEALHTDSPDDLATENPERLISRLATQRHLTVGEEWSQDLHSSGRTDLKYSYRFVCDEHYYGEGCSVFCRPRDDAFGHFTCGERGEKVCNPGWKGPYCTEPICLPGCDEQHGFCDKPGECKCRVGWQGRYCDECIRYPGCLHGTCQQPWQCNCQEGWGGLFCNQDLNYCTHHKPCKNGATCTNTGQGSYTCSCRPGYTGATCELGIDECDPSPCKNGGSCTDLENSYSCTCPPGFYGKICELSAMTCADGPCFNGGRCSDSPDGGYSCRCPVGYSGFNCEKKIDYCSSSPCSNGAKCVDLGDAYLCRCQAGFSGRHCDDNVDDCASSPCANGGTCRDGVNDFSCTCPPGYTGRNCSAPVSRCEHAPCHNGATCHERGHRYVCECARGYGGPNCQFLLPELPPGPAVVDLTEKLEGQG

T2: ECD of human DLL3 protein fused with his tag (Acro Bio, Cat. No. DL3-H52H4) (human, UniProt Q9NYJ7 27-492)
T2 construct: range 27-492; Bought protein; also called hDLL3-his; human DLL3-his protein; not shown: his tag
T2 sequence (looked up): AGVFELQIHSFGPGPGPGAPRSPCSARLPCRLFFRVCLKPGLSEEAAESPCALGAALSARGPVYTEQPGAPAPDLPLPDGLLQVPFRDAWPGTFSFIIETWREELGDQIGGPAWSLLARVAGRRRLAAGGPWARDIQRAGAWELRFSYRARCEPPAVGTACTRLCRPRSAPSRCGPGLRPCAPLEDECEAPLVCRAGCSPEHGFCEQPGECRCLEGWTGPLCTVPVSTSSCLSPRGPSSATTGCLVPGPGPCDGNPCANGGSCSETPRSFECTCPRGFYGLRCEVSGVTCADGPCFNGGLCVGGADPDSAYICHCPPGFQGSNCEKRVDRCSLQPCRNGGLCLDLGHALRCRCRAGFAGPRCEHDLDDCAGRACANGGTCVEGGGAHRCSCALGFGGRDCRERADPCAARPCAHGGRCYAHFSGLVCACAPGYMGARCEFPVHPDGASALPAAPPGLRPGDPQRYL

T3: mouse DLL3 his tag protein (KACTUS, Cat. No. DLL-MM103) (mouse, UniProt O88516 33-490, limits assumed)
T3 construct: Bought protein; also called mDLL3-his; mouse DLL3 protein; not shown: his tag
T3 sequence (looked up): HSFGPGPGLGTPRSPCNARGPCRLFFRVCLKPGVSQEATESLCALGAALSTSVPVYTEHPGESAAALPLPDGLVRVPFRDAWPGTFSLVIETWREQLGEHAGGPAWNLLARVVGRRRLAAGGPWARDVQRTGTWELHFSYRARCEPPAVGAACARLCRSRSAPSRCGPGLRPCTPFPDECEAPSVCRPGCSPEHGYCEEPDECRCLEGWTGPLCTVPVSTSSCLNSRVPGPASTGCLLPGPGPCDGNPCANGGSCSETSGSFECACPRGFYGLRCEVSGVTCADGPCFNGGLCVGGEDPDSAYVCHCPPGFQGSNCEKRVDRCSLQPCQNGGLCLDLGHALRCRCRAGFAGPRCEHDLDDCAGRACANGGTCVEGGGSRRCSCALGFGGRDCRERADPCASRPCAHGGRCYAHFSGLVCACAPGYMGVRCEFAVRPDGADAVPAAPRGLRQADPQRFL

T4: human full length DLL1 expressed on CHO-K1 cells (human, UniProt O00548 18-723)
T4 construct: whole, on cells; also called CHO-K1-hDLL1
T4 sequence (looked up): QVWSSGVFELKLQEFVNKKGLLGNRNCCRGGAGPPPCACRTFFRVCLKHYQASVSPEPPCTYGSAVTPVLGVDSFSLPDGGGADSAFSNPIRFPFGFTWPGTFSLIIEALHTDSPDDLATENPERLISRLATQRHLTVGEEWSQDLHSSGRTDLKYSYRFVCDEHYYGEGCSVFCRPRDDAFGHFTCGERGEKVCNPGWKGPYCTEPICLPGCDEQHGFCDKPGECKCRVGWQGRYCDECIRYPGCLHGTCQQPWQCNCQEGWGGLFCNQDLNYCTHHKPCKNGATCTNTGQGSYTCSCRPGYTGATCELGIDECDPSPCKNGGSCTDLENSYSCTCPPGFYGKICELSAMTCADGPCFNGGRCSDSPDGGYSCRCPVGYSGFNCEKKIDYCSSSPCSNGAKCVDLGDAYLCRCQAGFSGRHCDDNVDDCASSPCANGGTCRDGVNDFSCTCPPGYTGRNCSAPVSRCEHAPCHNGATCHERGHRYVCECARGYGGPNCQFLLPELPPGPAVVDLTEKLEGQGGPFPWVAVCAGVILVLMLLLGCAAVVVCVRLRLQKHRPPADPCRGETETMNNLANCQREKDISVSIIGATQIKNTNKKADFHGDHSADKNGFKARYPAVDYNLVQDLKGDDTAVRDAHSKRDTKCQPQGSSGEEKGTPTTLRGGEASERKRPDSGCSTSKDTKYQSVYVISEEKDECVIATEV

T5: ECD of human DLL3 over-expressed on HEK293 cells (human, UniProt Q9NYJ7 27-492)
T5 construct: extracellular domain; also called HEK293-hDLL3; human DLL3 expressed on HEK293 cells
T5 sequence (looked up): T2 sequence (looked up)

T6: human DLL3 endogenously expressed on SCLC tumor cell lines SHP77 and NCI-H82 (human, UniProt Q9NYJ7 27-618)
T6 construct: whole, on cells; also called human DLL3 expressed on tumor cells
T6 sequence (looked up): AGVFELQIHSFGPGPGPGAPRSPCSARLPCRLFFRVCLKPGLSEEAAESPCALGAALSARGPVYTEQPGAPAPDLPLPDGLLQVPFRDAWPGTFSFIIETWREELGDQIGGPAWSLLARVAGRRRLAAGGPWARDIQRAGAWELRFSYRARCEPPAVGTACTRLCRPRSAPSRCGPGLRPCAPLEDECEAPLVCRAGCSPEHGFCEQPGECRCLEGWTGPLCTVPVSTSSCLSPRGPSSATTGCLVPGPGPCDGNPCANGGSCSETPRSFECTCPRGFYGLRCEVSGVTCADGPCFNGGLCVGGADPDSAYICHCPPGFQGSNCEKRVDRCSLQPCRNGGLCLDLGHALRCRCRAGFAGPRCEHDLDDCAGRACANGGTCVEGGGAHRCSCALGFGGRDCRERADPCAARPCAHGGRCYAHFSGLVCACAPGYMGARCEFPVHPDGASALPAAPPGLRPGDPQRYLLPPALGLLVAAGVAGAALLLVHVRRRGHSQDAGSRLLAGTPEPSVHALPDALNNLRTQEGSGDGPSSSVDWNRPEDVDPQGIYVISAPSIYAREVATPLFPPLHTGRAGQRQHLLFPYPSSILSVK

B1: 148C3A7-hIgG1 chimeric antibody (antibody, V domains shown)
VH: EVQLQQSGPELIKPGTSVKMSCKASGYTFTTYLMHWVKQKPGQGLEWIGYINPYNDVTEYHEKFKDKATLTSDKSSSTAYMELSSLTSEDSAVYYCARLGGYGPGWYLDVWGAGTTVTVSS
VL: DIQMTQSPASLSASVGETVTITCRASGSIHNYLAWYLHKQGKSPQLLVYNAKTLADGVPSRFSGSGSGTQYSLKINSLQPEDFGSYYCHHFWSTPWTFGGGTKLEIKR
B2: 129H2B9-hIgG1 chimeric antibody (antibody, V domains shown)
VH: EVNLEESGGGLVQPGGSMKLSCVVSGFTFSNYWMSWVRQSPEKGLEWVAEIRLKSDNYATHYAESVKGKFTISRDDSKSRLYLQMNSLRPEDTGIYYCTSNRFAYWGQGTLVTVSA
VL: NIVMTQSPKSVSMSVGERVTLSCKASENVGTYVYWYQQKPEQSPKMMIYGASNRYTGVPDRFTGSGSATDFTLTIRSVQAEDLADYHCGQSYSYPFTFGSGTKLEIKR
B3: 362H3D3-hIgG1 chimeric antibody (antibody, V domains shown)
VH: EVQLQQSGPELLKPGASVKISCKASGYTFTDYTMHWVKQSHGRSLEWIGGIHPNYGGTSYNEKFKDKATLTVDKSSSTAYMEFRSLTSEDSAVYYCARWGYYGGSYWYFDVWGTGTTVTVSS
VL: DIQMTQSPASLSVSVGETVTITCRASENIYSNLAWYQQKQGKSPQLLVYAATNLADGVPSRFSGSGSGTQYSLKINSLQSEDFGSYYCQHFWGTPYTFGGGTKLEIKR
B4: 36B7F3-hIgG1 chimeric antibody (antibody, V domains shown)
VH: QVQLQQSGPELVKPGASVKISCRASGYTFTDHHLNWVKQRPGQGLEWIGWIFPGSGSDYYNERFKDKATLTVDKSSSTAYMLLSSLTSEDSAVYFCERWDYWGQGTTLTVSS
VL: QIVLTQSPTIMSASPGEKVTMTCSASSSISYMHWYQQKPGTSPKRWIYDTSTLASGVPARFSGGGSGTSYSLTISSMEAEDAATYYCHQRSSYPLTFGAGTKLELKR
B5: 9E8D8-hIgG1 chimeric antibody (antibody, V domains shown)
VH: QVQLQQSGAELVRPGASVKLSCKALGYTFTDSEIHWVKQTPVHGLEWIGAIHPRNGGTAYNQKFRGKATLSADRSSNTAYMELSSLTSEDSAVYYCSRGYFLDYWGQGTSVTVSS
VL: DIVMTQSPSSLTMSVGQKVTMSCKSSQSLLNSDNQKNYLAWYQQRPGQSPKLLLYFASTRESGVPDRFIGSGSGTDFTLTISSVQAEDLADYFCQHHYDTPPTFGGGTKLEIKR
B6: 310P3C5-hIgG1 chimeric antibody (antibody, V domains shown)
VH: EVQLQQSGPELVKPGASVKISCKASGYTFTDFYMNWVKQTHGKSLEWIGDANPNNGGTTHNPRFKGQATLTVDKSSNTAYMELRSLTSEDSAVYYCARGGLPGDFDYWGQGTTLTVSS
VL: DIQMTQSSSSFSVSLGDRVTITCKASEDIYNRLAWYQQKPGNAPRLLISGVTSLETGVPSRFSGSGSGKDYTLSITSLQTEDVATYYCQQYWSFPWTFGGGTKLEIKR

The target in one experiment is T1, human DLL1 his tag fusion protein (Sino …). The experiment can be described thus: ELISA, hDLL1-his coated at 1 ug/mL.
For B1, the binding result was “no binding (tested: up to 100 nM)”.

In the case of B2, the binding result is on record as “no binding (tested: up to 100 nM)”.

For B3, the binding result was “binds”.

B4: the binding result is “no binding (tested: up to 100 nM)”.

For the molecule B5, the binding result is on record as “no binding (tested: up to 100 nM)”.

On to B6, for which the binding result is reported as “no binding (tested: up to 100 nM)”.

The next experiment addresses T2, ECD of human DLL3 protein fused with …. As to the kind of experiment: ELISA, hDLL3-his coated at 1 ug/mL.
On to B4, for which the binding result was “binds”.

With B5, the binding result is listed as “binds”.

For a further experiment, the target named is T7, human DLL4 his tag fusion protein (Sino Biological, Cat. No. 10171-H08H) (human, UniProt Q9NR61 27-524).
T7 construct: Bought protein; also called hDLL4-his; hDLL4 protein; not shown: his tag
T7 sequence (Q9NR61 27-524 limits assumed): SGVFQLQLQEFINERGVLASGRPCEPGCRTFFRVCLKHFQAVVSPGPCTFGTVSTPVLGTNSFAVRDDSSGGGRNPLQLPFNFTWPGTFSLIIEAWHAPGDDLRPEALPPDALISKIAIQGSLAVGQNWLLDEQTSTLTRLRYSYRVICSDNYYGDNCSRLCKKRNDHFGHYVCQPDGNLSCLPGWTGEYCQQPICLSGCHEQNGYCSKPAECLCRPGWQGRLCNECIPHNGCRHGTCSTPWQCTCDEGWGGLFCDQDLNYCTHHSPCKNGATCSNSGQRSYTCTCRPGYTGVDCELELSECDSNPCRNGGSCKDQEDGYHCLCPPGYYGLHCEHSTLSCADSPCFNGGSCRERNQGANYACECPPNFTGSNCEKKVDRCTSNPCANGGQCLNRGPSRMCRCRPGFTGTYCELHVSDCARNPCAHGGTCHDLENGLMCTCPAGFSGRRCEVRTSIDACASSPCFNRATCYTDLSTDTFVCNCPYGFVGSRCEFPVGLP
As to the kind of experiment: ELISA, hDLL4-his coated at 1 ug/mL.
In the case of B1, the binding result is recorded as “no binding (tested: up to 100 nM)”.

For B2, the binding result was “no binding (tested: up to 100 nM)”.

As to B3, the binding result was “binds”.

As for B4, the binding result is listed as “no binding (tested: up to 100 nM)”.

With B5, the binding result is reported as “no binding (tested: up to 100 nM)”.

Consider B6, for which the binding result is “no binding (tested: up to 100 nM)”.

The next experiment deals with T3, mouse DLL3 his tag protein (KACTUS, …). As to the kind of experiment: ELISA, mDLL3-his coated at 1 ug/mL.
With B1, the binding result was “binds”.

As for B2, the binding result is on record as “binds”.

As to B3, the binding result was “binds”.

For the molecule B4, the binding result was “binds”.

For the molecule B5, the binding result is recorded as “binds”.

For B6, the binding result is “binds”.

The target in a further experiment is T4, human full length DLL1 expressed on …. The experiment can be described thus: flow cytometry on CHO-K1-hDLL1 cells.
B1: the binding result is “no binding (tested: highest dose level 100 nM)”.

Take B2: the binding result was “no binding (tested: highest dose level 100 nM)”.

As to B3, the binding result is listed as “binds”.

In the case of B4, the binding result is on record as “no binding (tested: highest dose level 100 nM)”.

As to B5, the binding result is recorded as “no binding (tested: highest dose level 100 nM)”.

As for B6, the binding result is reported as “no binding (tested: highest dose level 100 nM)”.

The target of another experiment is T5, ECD of human DLL3 over-expressed on …. As to the kind of experiment: flow cytometry on HEK293-hDLL3 cells.
As for B1, the binding result was “binds”.

With B2, the binding result is “binds”.

With B3, the binding result is “binds”.

With B4, the binding result is “binds”.

As for B5, the binding result is “binds”.

With B6, the binding result was “binds”.

For a further experiment, the target named is T6, human DLL3 endogenously expressed on …. As to the kind of experiment: flow cytometry on SHP77 and NCI-H82 cells.
Consider B1, for which the binding result is “binds”.

As to B3, the binding result is “binds”.

Consider B4, for which the binding result is reported as “binds”.

For B5, the binding result was “binds”.

Turning to B6, the binding result is recorded as “binds”.

The target in a further experiment is T2, ECD of human DLL3 protein fused with …. As to the kind of experiment: SPR, Biacore 8K, antibody captured on Protein A chip, single dose of human DLL3-his.
B1: the binding result is on record as “binds”.

With B2, the binding result is “binds”.

For B3, the binding result is on record as “binds”.

For the molecule B6, the binding result is given as “binds”.
